This is an account of results in PMC7782096, “BAP1 suppresses prostate cancer progression by deubiquitinating and stabilizing PTEN” (Molecular Oncology, 2020).

For this assay, the target named is T1, His-tagged BAP1 protein (UniProt Q92560 1-729).
T1 construct: BAP1, full length, inserted into pET-28a; also called His-BAP1; source: E. coli expressing system, purified
T1 sequence (looked up): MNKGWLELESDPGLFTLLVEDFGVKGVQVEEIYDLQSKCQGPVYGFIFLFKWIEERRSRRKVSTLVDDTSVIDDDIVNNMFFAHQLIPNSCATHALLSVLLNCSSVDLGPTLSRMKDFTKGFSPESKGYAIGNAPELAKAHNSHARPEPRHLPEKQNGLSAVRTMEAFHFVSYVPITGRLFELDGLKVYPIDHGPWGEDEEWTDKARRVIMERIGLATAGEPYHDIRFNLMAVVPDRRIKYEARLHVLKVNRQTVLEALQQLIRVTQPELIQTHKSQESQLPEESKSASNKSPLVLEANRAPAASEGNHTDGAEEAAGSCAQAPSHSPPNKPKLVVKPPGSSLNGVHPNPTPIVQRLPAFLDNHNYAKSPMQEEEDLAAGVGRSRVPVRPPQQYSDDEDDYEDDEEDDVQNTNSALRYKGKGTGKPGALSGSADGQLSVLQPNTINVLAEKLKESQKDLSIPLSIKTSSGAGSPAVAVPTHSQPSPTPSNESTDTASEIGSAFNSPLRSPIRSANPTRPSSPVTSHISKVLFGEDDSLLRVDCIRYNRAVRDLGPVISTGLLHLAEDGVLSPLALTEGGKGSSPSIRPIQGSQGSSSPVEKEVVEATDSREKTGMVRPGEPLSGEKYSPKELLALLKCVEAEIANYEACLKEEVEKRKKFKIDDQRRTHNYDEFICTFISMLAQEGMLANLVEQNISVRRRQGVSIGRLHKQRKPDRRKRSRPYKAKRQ
The assay is described as follows: pull-down; purified GST-PTEN on GST beads incubated with recombinant His-BAP1 purified from E. coli, 4 °C; western blotting. Particulars: both partners purified. A general note: Immunoblotting shows a protein as a band on a membrane.

B1: GST-tagged PTEN recombinant protein (natural protein)
chain: not shown
notes: PTEN; also called GST-PTEN; source: bacterially expressed (E. coli), purified
For B1, the binding result is on record as “binds”.
